{
  "source": "patent US20060257880A1",
  "about": "“Gastric and prostate cancer associated antigens” (THE NOTTINGHAM TRENT UNIVERSITY, priority 2003, published 2006)",
  "molecules": {"B1": {"name": "T21: SEREX-identified cancer-testis antigen clone; cDNA encodes a putative 535 amino acid protein (SEQ. ID. 3) (protein, listed as Homo sapiens)", "chain": "MSEAQSKNEIIAQEFLIKEAECRNADIELEHHRSQAEQNEFLSRELIEKERDLERSRTVIAKFQNKLKELVEENKQLEEGMKEILQAIKEMQKDPDVKGGETSLIIPSLERLVNAIESKNAEGIFDASLHLKAQVDQLTGRNEELRQELRESRKEAINYSQQLAKANLKIDHLEKETSLLRQSEGSNVVFKGIDLPDGIAPSSASIINSQNEYLIHLLQELENKEKKLKNLEDSLEDYNRKFAVIRHQQSLLYKEYLSEKETWKTESKTIKEEKRKLEDQVQQDAIKVKEYNNLLNALQMDSDEMKKILAENSRKITVLQVNEKSLIRQYTTLVELERQLRKENEKQKNELLSMEAEVCEKIGCLQRFKEMAIFKIAALQKVVDNSVSLSELELANKQYNELTAKYRDILQKDNMLVQRTSNLEHLECENISLKEQVESINKELEITKEKLHTIEQAWEQETKLGNESSMDKAKKSITNSDIVSISKKITMLEMKELNERQRAEHCQKMYEHLRTSLKQMEERNFELETKFAEV"}},
  "key": {"[1]": {"tested_on": "normal individual sera", "test": "Modified SEREX immunoscreening of T21 clone against normal individual sera", "format": "binding, human", "set-up": "key to Sera reactivity: +: sera reactivity observed; −: no sera reactivity observed", "from_the_text": "(§1) The SEREX approach allows an unbiased search for an antibody response and the direct molecular definition of immunogenic tumour proteins based on their reactivity with allogeneic patient sera. In this approach, a prokaryotically expressed cDNA library constructed from normal human testes was immunoscreened with absorbed and diluted patients' sera for the detection of tumour antigens that have elicited a high-titer immunoglobulin (Ig) G humoral response. Such a humoral response implies T-cell recognition of the detected antigens by helper T cells. […] The SEREX approach can then be modified and used to determine the reactivity of identified antigens with panels of human sera including prostate cancer patient sera and normal donor sera.\n(§2) The reactivity of promising positive clones against patient and normal donor serum was determined by immunoscreening the clones against and allogeneic panel of 10 prostate cancer patients' sera and 10 healthy donor patients' sera. The methodology used was the same as the SEREX methodology (described above) with the following modifications: The positive clone (T21) and a negative clone (blue phage) were plated out on a small LB agar plate at a ratio of 1:2 to give a titre of approximately 600 pfu/plate. The steps for detection of false positives, subcloning and retesting were not necessary. Following expression overnight, plaque expression and transferral of the plaques to nitrocellulose membranes, the nitrocellulose membranes were incubated with the individual serum and colour developed as described previously. The results would then be recorded simply as being positive (plaques visible) or negative (no plaques visible).\n(§3) Immune recognition of identified gene products in prostate cancer patients. To assess the frequency of antibody responses against T21 in sera from normal individuals and prostate cancer patients, 10 prostate cancer patient sera and 10 normal adult sera were screened using a modified immunoscreening procedure."}, "[2]": {"tested_on": "prostate cancer patients' sera", "test": "Modified SEREX immunoscreening of T21 clone against prostate cancer patients' sera", "format": "binding, human", "set-up": "key to Sera reactivity: +: sera reactivity observed; −: no sera reactivity observed", "from_the_text": "as §1, §2, §3"}},
  "data": [
    {"molecule": "B1", "values": [
      {"measurement": "Antibody response against T21 in sera (in words)", "setting": "[1]; 10 normal adult sera", "value": "not with sera from healthy individuals"},
      {"measurement": "Sera reactivity", "setting": "[1]; normal individual serum 1", "value": "−"},
      {"measurement": "Sera reactivity", "setting": "[1]; normal individual serum 2", "value": "−"},
      {"measurement": "Sera reactivity", "setting": "[1]; normal individual serum 3", "value": "−"},
      {"measurement": "Sera reactivity", "setting": "[1]; normal individual serum 5", "value": "−"},
      {"measurement": "Sera reactivity", "setting": "[1]; normal individual serum 12", "value": "−"},
      {"measurement": "Sera reactivity", "setting": "[1]; normal individual serum 13", "value": "−"},
      {"measurement": "Sera reactivity", "setting": "[1]; normal individual serum 14", "value": "−"},
      {"measurement": "Sera reactivity", "setting": "[1]; normal individual serum 19", "value": "−"},
      {"measurement": "Sera reactivity", "setting": "[1]; normal individual serum 20", "value": "−"},
      {"measurement": "Sera reactivity", "setting": "[1]; normal individual serum 21", "value": "−"},
      {"measurement": "Sera reactivity, reactive sera / sera tested", "setting": "[1]; panel of 10 normal donor sera", "value": "0/10"},
      {"measurement": "Antibody response against T21 in sera (in words)", "setting": "[2]; 10 prostate cancer patient sera", "value": "reacted exclusively with allogeneic sera obtained from prostate cancer patients"},
      {"measurement": "Sera reactivity, reactive sera / sera tested", "setting": "[2]; panel of 10 prostate cancer patients sera", "value": "4/10"},
      {"measurement": "Sera reactivity", "setting": "[2]; prostate cancer patient serum 27", "value": "+"},
      {"measurement": "Sera reactivity", "setting": "[2]; prostate cancer patient serum 29", "value": "−"},
      {"measurement": "Sera reactivity", "setting": "[2]; prostate cancer patient serum 32", "value": "−"},
      {"measurement": "Sera reactivity", "setting": "[2]; prostate cancer patient serum 33", "value": "−"},
      {"measurement": "Sera reactivity", "setting": "[2]; prostate cancer patient serum 34", "value": "+"},
      {"measurement": "Sera reactivity", "setting": "[2]; prostate cancer patient serum 36", "value": "−"},
      {"measurement": "Sera reactivity", "setting": "[2]; prostate cancer patient serum 37", "value": "−"},
      {"measurement": "Sera reactivity", "setting": "[2]; prostate cancer patient serum 38", "value": "+"},
      {"measurement": "Sera reactivity", "setting": "[2]; prostate cancer patient serum 39", "value": "+"},
      {"measurement": "Sera reactivity", "setting": "[2]; prostate cancer patient serum 48", "value": "−"}
    ]}
  ]
}
